Reference: patent publication US20240262791A1, “B[…] […] AMINO ACIDS” (priority 2021, published 2024)

Columns and labels:
[1] = target: SARS-CoV-2 (2019-nCoV) Spike RBD-mFc Recombinant Protein (SARS-CoV-2; mouse) (UniProt P0DTC2); test: time course 0 to 16 h at 37 °C, Western blot
[2] = target: Spike protein on SARS-CoV-2 GFP Reporter Virus Particles (pseudotyped lentivirus), wild-type strain (SARS-CoV-2) (UniProt P0DTC2); test: cell-based or functional assay
[3] = target: Spike protein on authentic SARS-CoV-2 Nanoluciferase virus (USA/WA1-2020) (SARS-CoV-2) (UniProt P0DTC2); test: cell-based or functional assay

Row | Substance | apparent second-order rate constant of covalent crosslinking [1] [M⁻¹ s⁻¹] | IC50, neutralizing pseudovirus [2] [nM] | IC50, neutralizing authentic SARS-CoV-2 virus [3] [nM]
1 | ACE2-34FSY (soluble human ACE2, amino acids 1 to 740, FSY at H34, C-terminal His x6) (from UniProt Q9BYF1 18-740) (receptor) | 123 | – | –
2 | mNb6 dimer with one FFY at position 108 of the N-terminal mNb6 (VHH) | – | 1.9 | 0.28
